In publication PMC4267654:
Like-named read-outs stand apart in the source and are kept apart here.

T1: R.NgoAVII-B3 (C-terminal B3-like DNA-binding domain) (UniProt Q5F9M9 179-345)
T1 sequence: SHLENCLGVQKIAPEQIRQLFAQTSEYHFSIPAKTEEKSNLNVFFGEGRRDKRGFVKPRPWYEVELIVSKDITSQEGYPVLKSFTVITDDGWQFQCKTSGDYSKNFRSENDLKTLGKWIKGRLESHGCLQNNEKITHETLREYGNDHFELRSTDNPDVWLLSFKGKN


What was measured:
[1] = molecular target: T1, R.NgoAVII-B3 (C-terminal B3-like …); test: X-ray crystallography
[2] = molecular target: T1, R.NgoAVII-B3 (C-terminal B3-like …); test: X-ray crystallography; remark: listed apart in the source

| Binder | binding result [1] | binding result [2] |
| --- | --- | --- |
| DNA-2 oligoduplex (DNA-1 without terminal C1 and G32) (dsDNA) DNA 1: GGGATTGCCGCTTAG DNA 2: CCTAAGCGGCAATCC | binds | – |
| DNA-1 cognate oligoduplex (dsDNA) DNA 1: GGGATTGCCGCTTAGG DNA 2: CCCTAAGCGGCAATCC | – | binds |
